Results from patent US20230340055A1 (published 2023).
Like-named read-outs stand apart in the source and are kept apart here. Blank lines part the entries; values can stand above or below the binder they belong to.

What was measured:
[1] = molecular target: T1, IL-2Rβγ (dimeric intermediate affinity IL-2 receptor), human, on cells (human, UniProt P14784 27-551; P31785 23-369); experiment: cell-based or functional assay
T1 sequence (looked up) 1: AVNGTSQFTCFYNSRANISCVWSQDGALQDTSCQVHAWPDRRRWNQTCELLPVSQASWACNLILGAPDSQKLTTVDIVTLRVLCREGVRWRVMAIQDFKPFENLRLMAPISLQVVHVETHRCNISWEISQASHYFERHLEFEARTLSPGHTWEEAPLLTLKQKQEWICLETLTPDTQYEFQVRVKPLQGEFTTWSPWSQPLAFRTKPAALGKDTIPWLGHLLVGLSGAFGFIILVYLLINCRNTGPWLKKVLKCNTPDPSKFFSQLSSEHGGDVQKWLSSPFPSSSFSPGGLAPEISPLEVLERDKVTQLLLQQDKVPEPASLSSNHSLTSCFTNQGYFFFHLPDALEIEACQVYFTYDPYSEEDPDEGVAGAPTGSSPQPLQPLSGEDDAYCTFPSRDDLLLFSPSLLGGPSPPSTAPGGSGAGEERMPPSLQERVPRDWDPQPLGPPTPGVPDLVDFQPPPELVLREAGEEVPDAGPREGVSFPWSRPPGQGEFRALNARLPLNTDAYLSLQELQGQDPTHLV
T1 sequence (looked up) 2: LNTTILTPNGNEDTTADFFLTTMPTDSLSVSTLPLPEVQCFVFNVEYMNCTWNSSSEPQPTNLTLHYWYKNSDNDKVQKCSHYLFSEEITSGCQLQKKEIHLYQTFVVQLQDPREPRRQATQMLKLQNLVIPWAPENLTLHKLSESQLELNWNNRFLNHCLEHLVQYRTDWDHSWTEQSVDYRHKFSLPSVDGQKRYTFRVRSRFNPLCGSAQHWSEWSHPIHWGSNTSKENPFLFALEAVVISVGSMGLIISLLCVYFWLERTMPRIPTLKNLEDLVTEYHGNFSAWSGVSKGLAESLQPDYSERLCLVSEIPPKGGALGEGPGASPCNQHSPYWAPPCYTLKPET

[2] = molecular target: T2, IL-2Rαβγ (trimeric high-affinity IL-2 receptor), human, on cells (human, UniProt P01589 22-272; P14784 27-551; P31785 23-369); experiment: cell-based or functional assay
T2 sequence (looked up) 1: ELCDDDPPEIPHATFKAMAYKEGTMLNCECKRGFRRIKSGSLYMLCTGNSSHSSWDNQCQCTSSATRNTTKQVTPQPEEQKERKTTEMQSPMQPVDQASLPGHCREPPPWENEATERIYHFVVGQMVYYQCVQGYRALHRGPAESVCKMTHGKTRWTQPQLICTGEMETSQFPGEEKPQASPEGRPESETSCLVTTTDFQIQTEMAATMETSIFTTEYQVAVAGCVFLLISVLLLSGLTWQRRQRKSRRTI
T2 sequence (looked up) 2: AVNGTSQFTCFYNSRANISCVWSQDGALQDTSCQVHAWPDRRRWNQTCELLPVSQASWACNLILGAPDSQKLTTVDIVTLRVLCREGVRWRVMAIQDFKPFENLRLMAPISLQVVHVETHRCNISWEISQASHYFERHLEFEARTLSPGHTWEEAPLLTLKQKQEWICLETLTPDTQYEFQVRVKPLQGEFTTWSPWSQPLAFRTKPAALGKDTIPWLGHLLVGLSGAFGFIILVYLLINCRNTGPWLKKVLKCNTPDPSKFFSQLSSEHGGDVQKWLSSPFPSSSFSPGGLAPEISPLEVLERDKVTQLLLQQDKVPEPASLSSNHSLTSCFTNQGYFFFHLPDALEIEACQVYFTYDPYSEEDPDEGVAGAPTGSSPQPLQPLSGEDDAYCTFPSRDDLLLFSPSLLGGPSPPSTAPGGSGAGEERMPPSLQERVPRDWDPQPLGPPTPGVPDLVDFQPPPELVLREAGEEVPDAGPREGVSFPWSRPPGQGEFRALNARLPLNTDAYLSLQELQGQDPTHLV
T2 sequence (looked up) 3: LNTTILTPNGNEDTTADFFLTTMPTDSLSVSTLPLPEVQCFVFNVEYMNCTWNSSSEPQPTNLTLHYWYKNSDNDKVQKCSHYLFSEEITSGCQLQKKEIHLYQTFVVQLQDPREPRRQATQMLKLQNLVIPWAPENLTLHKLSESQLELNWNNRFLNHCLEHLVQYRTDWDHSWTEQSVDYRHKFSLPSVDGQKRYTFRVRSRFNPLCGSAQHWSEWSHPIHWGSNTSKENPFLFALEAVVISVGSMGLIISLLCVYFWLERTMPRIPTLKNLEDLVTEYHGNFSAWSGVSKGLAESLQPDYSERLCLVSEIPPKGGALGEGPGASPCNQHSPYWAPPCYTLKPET

[3] = molecular target: T1, IL-2Rβγ (dimeric intermediate affinity …); experiment: cell-based or functional assay; remark: listed apart in the source
[4] = molecular target: T2, IL-2Rαβγ (trimeric high-affinity IL-2 …); experiment: cell-based or functional assay; remark: listed apart in the source
[5] = molecular target: T3, Human IL-2 Receptor alpha, Fc-Tag (Symansis, New Zealand) (human, UniProt P01589 22-240); experiment: SPR; KD to IL-2Rα divided by KD to IL-2Rβ of the same compound
T3 construct: extracellular domain; Bought reagent; also called IL-2Rα; IL-2Rα-Fc; not shown: Fc-Tag (captured by anti-human IgG (Fc) antibody)
T3 sequence (looked up): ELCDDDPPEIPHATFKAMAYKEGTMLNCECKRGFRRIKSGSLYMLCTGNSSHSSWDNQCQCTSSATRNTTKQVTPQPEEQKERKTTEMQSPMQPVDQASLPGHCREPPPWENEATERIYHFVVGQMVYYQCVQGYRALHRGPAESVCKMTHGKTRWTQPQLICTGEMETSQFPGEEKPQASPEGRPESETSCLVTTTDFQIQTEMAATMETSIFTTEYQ
Protocol: (§1) For the determination of binding kinetics to IL-2Rα the following chip preparation was used: Human IL-2 Receptor alpha, Fc-Tag (Symansis, New Zealand) was diluted in HBS-EP running buffer (GE Healthcare, 10 mM HEPES, 150 mM NaCl, 3 mM EDTA, 0.05% Surfactant P20, pH 7.4) to approx. 0.67 µg/mL and immobilized at a flow rate of 50 µL/min for 60 s to achieve 80 - 100 response units (RU).
as §1, with “IL-2Rβ” for “IL-2Rα”, “beta,” for “alpha,”, “around 0.80” for “approx. 0.67”, “140” for “80”, “180” for “100”
(§2) (50 µL/min flow rate, 60 s contact time, 300 s dissociation time). Double referenced data (subtracted data from the reference flow cell and the buffer only samples) was analysed via a kinetic fit (1:1 binding model) to determine KD, kₐ and kd. Regeneration after each cycle was performed with 3 M MgCl₂.

[6] = molecular target: T3, Human IL-2 Receptor alpha, Fc-Tag …; experiment: calculated from the SPR KD values of Example 7; reference protein 5a
Protocol: as §1
as §1, with “IL-2Rβ” for “IL-2Rα”, “beta,” for “alpha,”, “around 0.80” for “approx. 0.67”, “140” for “80”, “180” for “100”
as §2

[7] = molecular target: T1, IL-2Rβγ (dimeric intermediate affinity …); experiment: cell-based or functional assay; remark: listed apart in the source
[8] = molecular target: T2, IL-2Rαβγ (trimeric high-affinity IL-2 …); experiment: cell-based or functional assay; remark: listed apart in the source
[9] = molecular target: T4, Human IL-2 Receptor beta, Fc-Tag (Symansis, New Zealand) (human, UniProt P14784 27-240); experiment: SPR (Biacore T200), IL-2Rβ-Fc captured on anti-human IgG (Fc) CM5 chip, IL-2 as analyte, multi-cycle kinetics, 1:1 kinetic fit, 25 C
T4 construct: extracellular domain; Bought reagent; also called IL-2Rβ; IL-2Rβ-Fc; not shown: Fc-Tag (captured by anti-human IgG (Fc) antibody)
T4 sequence (looked up): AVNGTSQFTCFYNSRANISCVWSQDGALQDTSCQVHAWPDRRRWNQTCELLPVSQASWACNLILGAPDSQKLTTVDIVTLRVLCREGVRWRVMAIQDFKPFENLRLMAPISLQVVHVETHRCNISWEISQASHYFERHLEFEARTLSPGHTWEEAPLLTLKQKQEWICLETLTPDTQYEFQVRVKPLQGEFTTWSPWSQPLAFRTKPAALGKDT
Protocol: as §1, with “IL-2Rβ” for “IL-2Rα”, “beta,” for “alpha,”, “around 0.80” for “approx. 0.67”, “140” for “80”, “180” for “100”
as §2

[10] = molecular target: T5, IL-2-Rα/β/γ on the murine CTLL-2 T lymphocyte cell line (murine, UniProt P01590 22-268; P16297 27-539; P34902 23-369); experiment: cell-based or functional assay
T5 sequence (looked up) 1: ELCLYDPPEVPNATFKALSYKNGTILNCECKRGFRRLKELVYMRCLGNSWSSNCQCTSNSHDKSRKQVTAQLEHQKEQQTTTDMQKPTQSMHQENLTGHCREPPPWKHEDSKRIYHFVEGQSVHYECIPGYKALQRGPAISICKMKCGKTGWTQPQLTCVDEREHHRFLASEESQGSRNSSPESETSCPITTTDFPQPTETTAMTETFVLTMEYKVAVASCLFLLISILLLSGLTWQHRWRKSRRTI
T5 sequence (looked up) 2: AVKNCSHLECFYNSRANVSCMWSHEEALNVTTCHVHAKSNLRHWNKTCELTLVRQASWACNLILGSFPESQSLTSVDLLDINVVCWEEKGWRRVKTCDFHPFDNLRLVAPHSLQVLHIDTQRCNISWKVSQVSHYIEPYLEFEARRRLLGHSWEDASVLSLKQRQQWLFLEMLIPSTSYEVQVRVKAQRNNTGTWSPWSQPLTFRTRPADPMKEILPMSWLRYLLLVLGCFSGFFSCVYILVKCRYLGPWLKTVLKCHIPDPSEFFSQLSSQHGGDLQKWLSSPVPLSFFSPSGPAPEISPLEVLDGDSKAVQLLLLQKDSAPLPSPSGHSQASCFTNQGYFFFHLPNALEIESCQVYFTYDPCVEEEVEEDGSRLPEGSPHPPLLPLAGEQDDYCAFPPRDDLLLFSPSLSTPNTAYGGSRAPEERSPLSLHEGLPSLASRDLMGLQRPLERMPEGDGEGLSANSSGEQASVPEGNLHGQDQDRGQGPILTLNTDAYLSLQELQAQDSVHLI
T5 sequence (looked up) 3: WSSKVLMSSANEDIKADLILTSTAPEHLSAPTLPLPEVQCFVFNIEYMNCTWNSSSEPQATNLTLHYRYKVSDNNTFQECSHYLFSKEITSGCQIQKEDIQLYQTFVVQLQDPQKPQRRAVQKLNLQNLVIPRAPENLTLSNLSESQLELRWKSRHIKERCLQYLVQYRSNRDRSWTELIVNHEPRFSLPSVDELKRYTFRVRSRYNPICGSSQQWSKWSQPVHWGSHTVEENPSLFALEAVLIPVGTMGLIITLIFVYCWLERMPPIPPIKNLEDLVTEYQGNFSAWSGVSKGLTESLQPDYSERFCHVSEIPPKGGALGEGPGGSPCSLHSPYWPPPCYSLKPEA

[11] = molecular target: T1, IL-2Rβγ (dimeric intermediate affinity …); experiment: cell-based or functional assay; remark: listed apart in the source

- Ave EC50, pSTAT5 percent positive, CD8+ T cells (human whole blood) [1]: 1.69 ng/ml
- Ave EC50, pSTAT5 percent positive, NK cells (human whole blood) [1]: 0.371 ng/ml
- Fold reduction in potency vs WT-IL2 (1d), pSTAT5 percent positive, CD8+ T cells [1]: 1.58 fold
- Fold reduction in potency vs WT-IL2 (1d), pSTAT5 percent positive, NK cells [1]: 2.01 fold
- Ave EC50, pSTAT5 percent positive, T regulatory cells (human whole blood) [2]: 1.06 ng/ml
- Fold reduction in potency vs WT-IL2 (1d), pSTAT5 percent positive, T regulatory cells [2]: 598 fold
- Ave EC50, pSTAT5 MFI, CD8+ T cells (human whole blood) [3]: 12.6 ng/ml
- Ave EC50, pSTAT5 MFI, NK cells (human whole blood) [3]: 3.07 ng/ml
- Fold reduction in potency vs WT-IL2 (1d), pSTAT5 MFI, CD8+ T cells [3]: 1.44 fold
- Fold reduction in potency vs WT-IL2 (1d), pSTAT5 MFI, NK cells [3]: 1.34 fold
- Ave EC50, pSTAT5 MFI, T regulatory cells (human whole blood) [4]: 7.93 ng/ml
- Fold reduction in potency vs WT-IL2 (1d), pSTAT5 MFI, T regulatory cells [4]: 437 fold
B1: protein 1a (ligand)
chain: APTSSSTKKTQLQLEHLLLDLQMILNGINNYKNPKLTFGNSTKFYMPKKATELKHLQCLEEELKPLEEVLNLAQSKNFHLRPRDLISNINVIVLELKGSETTFMCEYADETATIVEFLNRWITFSQSIISTLTHHHHHH
modifications: N-glycosylated (at least 90% by SDS-PAGE shift, removed by PNGase F)

- KD-Ratio (α/β) [5]: > 4.02
- ratio of Ratio protein 1f to Ratio protein 5a (KD to IL-2Rα / KD to IL-2Rβ) [6]: > 200
- Ave EC50, pSTAT5 MFI, CD8+ T cells (human whole blood) [7]: 54.8 ng/ml
- Ave EC50, pSTAT5 MFI, NK cells (human whole blood) [7]: 7.35 ng/ml
- Fold reduction in potency vs WT-IL2 (1d), pSTAT5 MFI, CD8+ T cells [7]: 2.13 fold
- Fold reduction in potency vs WT-IL2 (1d), pSTAT5 MFI, NK cells [7]: 1.22 fold
- Ave EC50, pSTAT5 MFI, T regulatory cells (human whole blood) [8]: 33.5 ng/ml
- Fold reduction in potency vs WT-IL2 (1d), pSTAT5 MFI, T regulatory cells [8]: 372 fold
- Kd [9]: 993 nM
B2: protein 1f (ligand)
chain: APTSSSTKKTQLQLEHLLLDLQMILNGINNYKNPKLTFGNSTKFYMPKKATELKHLQCLEEELKPLEEVLNLAQSKNFHLRPRDLISNINVIVLELKGSETTFMCEYADETATIVEFLNRWITFSQSIISTLT
modifications: N-glycosylated at the introduced N-glycosylation site (motif FGNST, peptide LTFGNSTK; heterogeneous glycans); heterogeneous O-glycosylation at the wildtype O-glycosylation site
notes: also called N-glycosylated IL2 (1f)

- EC50 CTLL-2, STAT5 phosphorylation [10]: 1.57 µg/mL
- Ratio (E50 CTLL-2 cells/EC50 HH cell) [10]: 39.5
- EC50 HH cells, STAT5 phosphorylation [11]: 0.0398 µg/mL
B3: conjugate release mixture 8 (other)
chain: APTSSSTKKTQLQLEHLLLDLQMILNGINNYKNPKLTFGNSTKFYMPKKATELKHLQCLEEELKPLEEVLNLAQSKNFHLRPRDLISNINVIVLELKGSETTFMCEYADETATIVEFLNRWITFSQSIISTLT
modifications: glycosylated as protein 6; residual conjugate 7 in the mixture carries one 40 kDa mPEG-linker on a primary amine of the N-terminus or a lysine side chain
